This note sets out measurements from US20180095078.

The target of data set [1] is Hepatitis B surface antigen (HBsAg) (Hepatitis B virus) (UniProt P03138). The data set can be described thus: pulldown. As to conditions: magnetic bead pulldown with q-PCR; BD buffer, room temperature.
In data set [2] the target is HCV NS3 protein (Hepatitis C virus) (UniProt P27958). The data set can be described thus: pulldown. As to conditions: magnetic bead pulldown with q-PCR; BD buffer, room temperature.
HCV NS3 protein (Hepatitis C virus), sequence (P27958 1027-1657): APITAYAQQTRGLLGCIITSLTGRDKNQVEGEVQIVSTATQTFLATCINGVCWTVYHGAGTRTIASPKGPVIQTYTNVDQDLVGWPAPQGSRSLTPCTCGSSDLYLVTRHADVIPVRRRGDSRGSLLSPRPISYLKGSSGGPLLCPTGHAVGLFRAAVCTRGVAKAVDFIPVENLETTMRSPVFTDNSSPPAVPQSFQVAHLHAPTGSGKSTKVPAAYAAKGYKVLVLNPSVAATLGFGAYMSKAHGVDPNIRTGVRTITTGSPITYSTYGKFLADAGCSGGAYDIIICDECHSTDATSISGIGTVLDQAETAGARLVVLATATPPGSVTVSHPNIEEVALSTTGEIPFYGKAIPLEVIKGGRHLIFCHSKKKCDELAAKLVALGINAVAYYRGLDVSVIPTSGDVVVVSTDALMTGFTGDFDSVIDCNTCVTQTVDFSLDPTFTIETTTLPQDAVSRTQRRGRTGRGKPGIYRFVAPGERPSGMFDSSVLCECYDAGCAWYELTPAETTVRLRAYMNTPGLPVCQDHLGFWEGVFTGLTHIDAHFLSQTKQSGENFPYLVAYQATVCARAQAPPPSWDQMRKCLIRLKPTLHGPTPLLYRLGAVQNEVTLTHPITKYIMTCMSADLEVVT

With “AGCAGCACAGAGGTCCCAACCGGAATCTGCACCTCGCGTGCTACCGTGAA [K2-4]”, the Kd (as a rule, the concentration at which binding is half-saturated) in data set [1] is 31.4 nM. For the sequence “AGCAGCACAGAGGTCCCCATGTCCACCTTTCTGTGGCGTGCTACCGTGAA [K3-1]”, in data set [2], the Kd came to 15.9 nM.

Regarding “AGCAGCACAGAGGTCCTGCATCACGAAGCCTGGCAGCGTGCTACCGTGAA [MP-1]”, the Kd in data set [2] is 23.3 nM; in data set [1] it was 28.3 nM.
